Substitutions are numbered along the chain they refer to.
Key:
[1] = molecular target: McsAZ2-McsB complex (heterotetramer of a McsB dimer and two McsAZ2) (Bacillus subtilis strain 168) (UniProt P37569); assay: cryo-EM structure
[2] = molecular target: T1, McsB(R194A), the McsB chain of the McsAZ2(R115A)-McsB(R194A) mutant (Bacillus subtilis strain 168, UniProt P37570 1-363, R194A); assay: SEC
T1 sequence: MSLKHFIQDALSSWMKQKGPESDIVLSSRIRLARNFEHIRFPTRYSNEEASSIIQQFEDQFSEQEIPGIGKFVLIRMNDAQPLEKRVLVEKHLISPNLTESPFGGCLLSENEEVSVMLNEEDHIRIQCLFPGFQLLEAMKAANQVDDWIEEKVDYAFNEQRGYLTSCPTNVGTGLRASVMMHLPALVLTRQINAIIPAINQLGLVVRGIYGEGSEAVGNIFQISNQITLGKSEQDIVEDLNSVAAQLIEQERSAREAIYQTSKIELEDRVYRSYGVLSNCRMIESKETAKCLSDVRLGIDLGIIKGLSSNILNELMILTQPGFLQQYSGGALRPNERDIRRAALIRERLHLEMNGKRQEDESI

cryo-EM structure = molecular target: the molecule itself; assay: cryo-EM structure

Molecule: McsAZ2-McsB complex (heterotetramer of a McsB dimer and two McsAZ2) (from UniProt P37569;P37570)
- stoichiometry N [1]: 2 tetramers

B1: CtsR (B. subtilis transcriptional repressor), full length (natural protein)
chain: MGHNISDIIEQYLKRVLDQNGKEILEIKRSEIADKFQCVPSQINYVINTRFTSERGYIVESKRGGGGYIRIIKIKMNNEVVLINNIISQINTHLSQAASDDIILRLLEDKVISEREAKMMVSVMDRSVLHIDLPERDELRARMMKAMLTSLKLK
- binding result [2]: binds

B2: CtsRCTD (C-terminal domain of CtsR, residues 75–154) (domain or fragment)
chain: KMNNEVVLINNIISQINTHLSQAASDDIILRLLEDKVISEREAKMMVSVMDRSVLHIDLPERDELRARMMKAMLTSLKLK
- binding result [2]: binds

B3: McsB (B. subtilis protein-arginine kinase subunit), coexpressed with McsAZ2 (enzyme)
chain: T1 sequence with A194R
modifications: phosphoarginine at 194 and 333 (pR194, pR333)
- stoichiometry N (cryo-EM structure): 2
